Biological target: T1, D2-KIR3DL2-IgG1-Fc (human, UniProt P43630 220-316, limits assumed)
T1 construct: domain: D2; also called D2 domain of KIR3DL2 as IgG1-Fc protein
Assay: flow cytometry on HEK-293 cells expressing FLAG-KIR3DX1rep, anti-IgG-Fc detection (Fig. 4C)

T1 sequence (P43630 other isoform, or with tags, fused parts or gaps limits assumed): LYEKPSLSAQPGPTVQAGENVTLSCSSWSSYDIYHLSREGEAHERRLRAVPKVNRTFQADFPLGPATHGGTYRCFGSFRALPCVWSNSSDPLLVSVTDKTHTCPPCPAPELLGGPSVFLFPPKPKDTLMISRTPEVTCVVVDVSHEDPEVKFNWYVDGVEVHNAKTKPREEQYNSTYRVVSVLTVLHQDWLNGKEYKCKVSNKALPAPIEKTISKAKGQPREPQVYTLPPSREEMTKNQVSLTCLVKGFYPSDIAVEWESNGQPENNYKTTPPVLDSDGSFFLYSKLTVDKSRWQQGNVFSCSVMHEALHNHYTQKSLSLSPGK

B1: FLAG-KIR3DX1rep (receptor)
chain: QKICPHAGAQDKFSLSAWPSPVVPLGGRVTLSCHSHLRFVIWTIFQTTGTRSHELHTGLSNNITISPVTPEHAGTYRCVGIYKHASKWSAESNSLKIIVTGLFTKPSISAHPSSLVHAGARVSLRCHSELAFDEFILYKEGHIQHSQQLDQGMEAGIHYVEAVFSMGPVTPAHAGAYRCCGCFSHSRYEWSAPSDPLDIVITGKYKKPSLSTQVDPMMRLGEKLTLFCSSEISFDQYHLFRHGVAHGQWLSGGQRHREAFQANFSVGRATPVPGGTYRCYGSFNDSPYEWSAPSDPLQLYTTGNTKSTPLSFTESTPESDTPRPQGQSSNLHMLTGLSVAIISIGVCLSAFIGFWCYIKYHTTMANTEPTEGQRTDEEEPAAEETQEIIYAQLNHQALSQTGFPPASQCPHYLSEDPSIYITVHQAQAEARAAPSLWHKGHPR
notes: also called FLAG-tagged full-length KIR3DX1-repaired; full-length KIR3DX1 in its repaired form as cell surface receptor
Q: Does B1 bind?
A: Result: no binding

— EP4509523A1 (Deutsches Primatenzentrum GmbH (DPZ), dated 2025)
